According to patent US20060040323A1 (SCIENCE AND TECHNOLOGY CORPORATION UNM, published 2006):

T1: murine PF4 complexed to heparin (murine, UniProt Q9Z126 30-105)
T1 construct: mature; Complexed to heparin in the ELISA; also called mPF4; mouse PF4
T1 sequence (looked up): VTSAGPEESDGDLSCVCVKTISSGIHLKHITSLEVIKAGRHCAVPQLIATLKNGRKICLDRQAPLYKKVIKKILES

T2: hNAP-2 complexed to heparin (human, UniProt P02775 59-128)
T2 construct: mature; Complexed to heparin in the ELISA; NAP-2 is its C-terminal product
T2 sequence (looked up): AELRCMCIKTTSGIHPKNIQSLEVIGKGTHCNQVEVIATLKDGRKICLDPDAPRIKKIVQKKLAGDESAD

T3: hIL-8 complexed to heparin (human, UniProt P10145 21-99)
T3 construct: mature; Complexed to heparin in the ELISA
T3 sequence (looked up): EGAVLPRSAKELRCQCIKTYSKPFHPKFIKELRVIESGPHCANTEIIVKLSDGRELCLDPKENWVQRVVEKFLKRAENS

T4: hPF4/heparin complex (human, UniProt P02776 32-101)
T4 construct: hPF4 (10 micrograms per milliliter) complexed with heparin (0.2 Units/milliliter in the standard ELISA); heparin is a glycosaminoglycan and not a protein chain; also called P/H
T4 sequence (looked up): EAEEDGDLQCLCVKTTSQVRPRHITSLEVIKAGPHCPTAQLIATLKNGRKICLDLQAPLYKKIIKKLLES

B1: murine monoclonal antibody KKO (antibody, V domains shown)
VH: EVQLQQSGAELVKPGASVKLSCKASGYTFTNYFIYWVKQRPGQGLEWIGEINPRNGDTDFNEKFESRATLTVDKSSSTAYMQLSSLTSEDSAIYYCTRSPYGNNYGFTYWGQGTLVTVSA
VL: DIQMIQSQKFMSTSVGDRVTVTCKASQNVGTNVAWYQQKPGQSPNALIYSASYRYSGVPDRFTGSGSGTDFTLTITNVQSEDLADYFCQQYNSYPLTFGTGTKLEIK
notes: Murine IgG2b kappa purified from ascites

What was measured:
[1] = molecular target: platelet Fc-gamma RIIA (human) (UniProt P12318); assay: cell-based or functional assay
[2] = molecular target: T1, murine PF4 complexed to heparin; assay: ELISA, mPF4 complexed to heparin
Procedure: (§1) The binding of antibody to either PF4, PF4 variants, PF4 bound to various GAGs or other chemokines complexed to heparin, was measured using an ELISA-based method as previously described (Arepally et al., 1995, Am. J. Clin. Pathol. 104:648). Briefly, to screen hybridoma culture supematants, 96-well microtiter plates were coated overnight at room temperature with 50 micoliters per well of phosphate buffered saline (PBS) containing PF4 (final concentration 10 micrograms per milliliter) in the presence or absence of heparin (0.2 Units/milliliter). The plates were then washed three times with TBS/0.01% Tween-20, blocked with 10% fetal calf serum (FCS) (200 microliters per well) in PBS for 2 hours at room temperature, and washed once more. Culture supernatant was added (50 microliters per well) for 1 hour at room temperature. Non-bound antibody was removed by washing, and 50 microliters per well of alkaline-phosphatase conjugated goat anti-mouse IgG, diluted 1:1000 in 10% FCS/PBS was added for 1 hour at room temperature. […] The binding of KKO to PF4 and related chemokines and the binding of KKO to PF4 bound to various GAGs, was measured in the same manner, except that an incubation volume of 100 microliters per well was used.

[3] = molecular target: T2, hNAP-2 complexed to heparin; assay: ELISA, chemokine complexed to heparin
Procedure: as §1

[4] = molecular target: T3, hIL-8 complexed to heparin; assay: ELISA, chemokine complexed to heparin
Procedure: as §1

hPF4/heparin complex [5] = molecular target: T4, hPF4/heparin complex; assay: ELISA, wells coated with hPF4/heparin
Procedure: as §1, with “temperature.” for “temperature. Non-bound antibody was removed by washing, and 50 microliters per well of alkaline-phosphatase conjugated goat anti-mouse IgG, diluted 1:1000 in 10% FCS/PBS was added for 1 hour at room temperature.”
(§2) The relative specificity of KKO was determined by adding various dilutions of KKO to wells coated with hPF4/heparin complex or hPF4 alone. […] At concentrations less than 0.14 micrograms per milliliter, the ratio of binding of KKO to PF4/heparin complex vs. binding to PF4 alone as determined by A₄₀₅ was greater than 400. […]

hPF4/heparin complex [6] = molecular target: T4, hPF4/heparin complex; assay: ELISA, wells coated with hPF4/heparin or hPF4 alone
Procedure: as §1

hPF4/heparin complex [7] = molecular target: T4, hPF4/heparin complex; assay: ELISA, KKO at concentrations less than 0.14 micrograms per milliliter
Procedure: as §1, with “temperature.” for “temperature. Non-bound antibody was removed by washing, and 50 microliters per well of alkaline-phosphatase conjugated goat anti-mouse IgG, diluted 1:1000 in 10% FCS/PBS was added for 1 hour at room temperature.”
as §2

platelet Fc-gamma RIIA (human), sequence (P12318 34-317, form in doubt): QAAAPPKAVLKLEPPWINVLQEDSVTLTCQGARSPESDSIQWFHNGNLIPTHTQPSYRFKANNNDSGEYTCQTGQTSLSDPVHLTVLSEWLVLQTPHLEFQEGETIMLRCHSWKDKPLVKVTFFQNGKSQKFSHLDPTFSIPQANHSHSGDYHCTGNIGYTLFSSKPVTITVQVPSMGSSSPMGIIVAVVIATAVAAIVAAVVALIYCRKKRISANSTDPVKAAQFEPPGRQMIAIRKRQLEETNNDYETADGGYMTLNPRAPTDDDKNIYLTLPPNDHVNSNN

| 14C-serotonin release induced by KKO [1] [% release] | binding result [2] | binding result [3] | binding result [4] | EC50 (hPF4/heparin complex [5]) [µg/mL] | A405 ratio to hPF4/heparin complex versus hPF4 alone (hPF4/heparin complex [6]) [ratio] | ratio of binding to PF4/heparin complex vs. binding to PF4 alone (A405) (hPF4/heparin complex [7]) [ratio] | Molecule |
| --- | --- | --- | --- | --- | --- | --- | --- |
| < 5 |  |  |  |  |  |  | Fc-gamma RIIA blocking antibody mAb IV.3 |
|  | no binding | no binding | no binding | 0.036 | > 30 | > 400 | B1 |
